# Data as given in US20230212319A1, “NOVEL ANTIGEN BINDING DOMAINS AND SYNTHETIC ANTIGEN RECEPTORS INCORPORATING THE SAME” (University of Southern California, priority 2020, published 2023).
# B1: 22083 (protein)
# chain: MALPVTALLLPLALLLHAARPQLQLQESGPGLVKPSETLSLTCTVSGDSISSGDYYWGWIRQPPGKGLEWIGHIYYSGVTYYNPSLKSRVTISVDTSRNQFSLKLSSVTAADTAVYYCTREDSSNWRSRGQGTLVTVSSLESGGGGSFEEVQLLESGGGLVQPGGSLRLSCAASGFTFSSYAMSWVRQAPGKGLEWVSSISGSGDYIYYADSVKGRFTISRDISKNTLYLQMNSLRAEDTAVYYCAKEGTGANSSLADYRGQGTLVTVSSTRDKTHTCPPCPAIPEDTFFPSPESSCDVKLVEKSFETDTNLNFQNLSVIGFRILLLKVAGFNLLMTLRLWSS
# B2: 22098 (protein)
# chain: MALPVTALLLPLALLLHAARPQVQLVESGGGLVQPGGSLRLSCAASGFTFTNHAMSWVRQAPGKGLELVSSISGNGRTTYYADSVKGRFTISRDISKNTLDLQMNSLRAEDTAVYYCAKDGGETLVDSRGQGTLVTVSSLEGQPKANPTVTLFPPSSEELQANKATLVCLISDFYPGAVTVAWKADGSPVKAGVETTKPSKQSNNKYAASSYLSLTPEQWKSHRSYSCQVTHEGSTVEKTVAPTECSPIKTDVITMDPKDNCSKDANDTLLLQLTNTSAYYMYLLLLLKSVVYFAIITCCLLRRTAFCCNGEKSRAKRSGSGATNFSLLKQAGDVEENPGPTSMDWIWRILFLVGAATGAHSFEEVQLLESGGGLVQPGGSLRLSCAASGFTFSSYAMSWVRQAPGKGLEWVSSISGSGDYIYYADSVKGRFTISRDISKNTLYLQMNSLRAEDTAVYYCAKEGTGANSSLADYRGQGTLVTVSSTRASTKGPSVFPLAPSSKSTSGGTAALGCLVKDYFPEPVTVSWNSGALTSGVHTFPAVLQSSGLYSLSSVVTVPSSSLGTQTYICNVNHKPSNTKVDKRVEPKSCEVKTDSTDHVKPKETENTKQPSKSCHKPKAIVHTEKVNMMSLTVLGLRMLFAKTVAVNFLLTAKLFFLRAKRSGSGVKQTLNFDLLKLAGDVESNPGPSRGHMTEYKPTVRLATRDDVPRAVRTLAAAFADYPATRHTVDPDRHIERVTELQELFLTRVGLDIGKVWVADDGAAVAVWTTPESVEAGAVFAEIGPRMAELSGSRLAAQQQMEGLLAPHRPKEPAWFLATVGVSPDHQGKGLGSAVVLPGVEAAERAGVPAFLETSAPRNLPFYERLGFTVTADVEVPEGPRTWCMTRKPGA
# B3: 22099 (protein)
# chain: MALPVTALLLPLALLLHAARPQVQLVESGGGLVQPGGSLRLSCAASGFTFTNHAMSWVRQAPGKGLELVSSISGNGRTTYYADSVKGRFTISRDISKNTLDLQMNSLRAEDTAVYYCAKDGGETLVDSRGQGTLVTVSSLEGQPKANPTVTLFPPSSEELQANKATLVCLISDFYPGAVTVAWKADGSPVKAGVETTKPSKQSNNKYAASSYLSLTPEQWKSHRSYSCQVTHEGSTVEKTVAPTECSGRADCGFTSESYQQGVLSATILYEILLGKATLYAVLVSALVLMAMVKRKDSRGRAKRSGSGATNFSLLKQAGDVEENPGPTSMDWIWRILFLVGAATGAHSFEEVQLLESGGGLVQPGGSLRLSCAASGFTFSSYAMSWVRQAPGKGLEWVSSISGSGDYIYYADSVKGRFTISRDISKNTLYLQMNSLRAEDTAVYYCAKEGTGANSSLADYRGQGTLVTVSSTRASTKGPSVFPLAPSSKSTSGGTAALGCLVKDYFPEPVTVSWNSGALTSGVHTFPAVLQSSGLYSLSSVVTVPSSSLGTQTYICNVNHKPSNTKVDKRVEPKSCIPEDTFFPSPESSCDVKLVEKSFETDTNLNFQNLSVIGFRILLLKVAGFNLLMTLRLWSSRAKRSGSGVKQTLNFDLLKLAGDVESNPGPSRGHMTEYKPTVRLATRDDVPRAVRTLAAAFADYPATRHTVDPDRHIERVTELQELFLTRVGLDIGKVWVADDGAAVAVWTTPESVEAGAVFAEIGPRMAELSGSRLAAQQQMEGLLAPHRPKEPAWFLATVGVSPDHQGKGLGSAVVLPGVEAAERAGVPAFLETSAPRNLPFYERLGFTVTADVEVPEGPRTWCMTRKPGA
# B4: 22090 (protein)
# chain: MALPVTALLLPLALLLHAARPQLQLQESGPGLVKPSETLSLTCTVSGDSISSGDYYWGWIRQPPGKGLEWIGHIYYSGVTYYNPSLKSRVTISVDTSRNQFSLKLSSVTAADTAVYYCTREDSSNWRSRGQGTLVTVSSLEDKTHTCPPCPAGRADCGFTSESYQQGVLSATILYEILLGKATLYAVLVSALVLMAMVKRKDSRGRAKRSGSGATNFSLLKQAGDVEENPGPTSMDWIWRILFLVGAATGAHSFEVQLLESGGGLIQPGGSLRLSCAASGFTFSSHAMTWVRQAPGKGLEWVSAISGSGDYTHYADSVKGRFTISRDNSKNTVYLQMNSLRAEDSAVYYCAKDEDGGSLLGHRGQGTLVTVSSTRIQNPDPAVYQLRDSKSSDKSVCLFTDFDSQTNVSQSKDSDVYITDKCVLDMRSMDFKSNSAVAWSNKSDFACANAFNNSIIPEDTFFPSPESSCDVKLVEKSFETDTNLNFQNLSVIGFRILLLKVAGFNLLMTLRLWSSRAKRSGSGVKQTLNFDLLKLAGDVESNPGPSRGHMTEYKPTVRLATRDDVPRAVRTLAAAFADYPATRHTVDPDRHIERVTELQELFLTRVGLDIGKVWVADDGAAVAVWTTPESVEAGAVFAEIGPRMAELSGSRLAAQQQMEGLLAPHRPKEPAWFLATVGVSPDHQGKGLGSAVVLPGVEAAERAGVPAFLETSAPRNLPFYERLGFTVTADVEVPEGPRTWCMTRKPGA
# B5: 22152 (protein)
# chain: MALPVTALLLPLALLLHAARPEVQLLESGGGLVQPGGSLRLSCAASGFTFSSYAMSWVRQAPGKGLEWVSSISGSGDYIYYADSVKGRFTISRDISKNTLYLQMNSLRAEDTAVYYCAKEGTGANSSLADYRGQGTLVTVSSGTGGGGSGGGGSGGGGSEFSYVLTQPPSVSVAPGQTARITCGGNNIGGKSVHWYQQPPGQAPVVVVYDDSDRPSGIPERFSGSNSGNTATLTISRVEAGDEAVYYCQVWDSSSDHVVFGGGTKLTVLLEDLKNVFPPEVAVFEPSEAEISHTQKATLVCLATGFYPDHVELSWWVNGKEVHSGVCTDPQPLKEQPALNDSRYCLSSRLRVSATFWQNPRNHFRCQVQFYGLSENDEWTQDRAKPVTQIVSAEAWGRADCGFTSESYQQGVLSATILYEILLGKATLYAVLVSALVLMAMVKRKDSRGRAKRSGSGATNFSLLKQAGDVEENPGPTSMDWIWRILFLVGAATGAHSFEQLQLQESGPGLVKPSETLSLTCTVSGGSISSSSYFWGWIRQPPGKGLEWIGSIYYSGITYYNPSLKSRVTISVDTSKNQFSLKLSSVTAADTAVYYCARHDGAVAGLFDYWGQGTLVTVSSATRIQNPDPAVYQLRDSKSSDKSVCLFTDFDSQTNVSQSKDSDVYITDKCVLDMRSMDFKSNSAVAWSNKSDFACANAFNNSIIPEDTFFPSPESSCDVKLVEKSFETDTNLNFQNLSVIGFRILLLKVAGFNLLMTLRLWSSRAKRSGSGVKQTLNFDLLKLAGDVESNPGPSRGHMTEYKPTVRLATRDDVPRAVRTLAAAFADYPATRHTVDPDRHIERVTELQELFLTRVGLDIGKVWVADDGAAVAVWTTPESVEAGAVFAEIGPRMAELSGSRLAAQQQMEGLLAPHRPKEPAWFLATVGVSPDHQGKGLGSAVVLPGVEAAERAGVPAFLETSAPRNLPFYERLGFTVTADVEVPEGPRTWCMTRKPGA
# B6: 22153 (protein)
# chain: MALPVTALLLPLALLLHAARPACEVQLLESGGGLIQPGGSLRLSCAASGFTFSSHAMTWVRQAPGKGLEWVSAISGSGDYTHYADSVKGRFTISRDNSKNTVYLQMNSLRAEDSAVYYCAKDEDGGSLLGHRGQGTLVTVSSGTGGGGSGGGGSGGGGSEFSYVLTQPPSVSVAPGQTARITCGGNNIGGKSVHWYQQPPGQAPVVVVYDDSDRPSGIPERFSGSNSGNTATLTISRVEAGDEAVYYCQVWDSSSDHVVFGGGTKLTVLLEGQPKANPTVTLFPPSSEELQANKATLVCLISDFYPGAVTVAWKADGSPVKAGVETTKPSKQSNNKYAASSYLSLTPEQWKSHRSYSCQVTHEGSTVEKTVAPTECSPIKTDVITMDPKDNCSKDANDTLLLQLTNTSAYYMYLLLLLKSVVYFAIITCCLLRRTAFCCNGEKSRAKRSGSGATNFSLLKQAGDVEENPGPTSATMDWIWRILFLVGAATGAHSGPQVQLQESGGGLAQAGGSLRLSCAASGRTFSMGWFRQAPGKEREFVAAITYSGGSPYYASSVRGRFTISRDNAKNTVYLQMNSLKPEDTAVYYCAANPTYGSDWNAENWGQGTQVTVSSGSGGGGSGGGGSGGGGSFEQLQLQESGPGLVKPSETLSLTCTVSGGSISSSSYFWGWIRQPPGKGLEWIGSIYYSGITYYNPSLKSRVTISVDTSKNQFSLKLSSVTAADTAVYYCARHDGAVAGLFDYWGQGTLVTVSSATRASTKGPSVFPLAPSSKSTSGGTAALGCLVKDYFPEPVTVSWNSGALTSGVHTFPAVLQSSGLYSLSSVVTVPSSSLGTQTYICNVNHKPSNTKVDKRVEPKSCEVKTDSTDHVKPKETENTKQPSKSCHKPKAIVHTEKVNMMSLTVLGLRMLFAKTVAVNFLLTAKLFFLRAKRSGSGVKQTLNFDLLKLAGDVESNPGPSRGHMTEYKPTVRLATRDDVPRAVRTLAAAFADYPATRHTVDPDRHIERVTELQELFLTRVGLDIGKVWVADDGAAVAVWTTPESVEAGAVFAEIGPRMAELSGSRLAAQQQMEGLLAPHRPKEPAWFLATVGVSPDHQGKGLGSAVVLPGVEAAERAGVPAFLETSAPRNLPFYERLGFTVTADVEVPEGPRTWCMTRKPGA
# System: L363 cells
# Test: JNG assay, co-culture with L363 cells
# Assay type: cell-based
# Details: co-culture with L363
# Summary of the method: (§1)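 Read-out is NFAT-driven GFP measured by flow cytometry after ~4–18 h co-culture of SAR-expressing JNG cells with target cells (E:T about 1:2). SARs were introduced by lentiviral spinfection and selected with puromycin or blasticidin when possible; scores (+/- to 5+ ≈ 5–50% GFP+) are relative to parental JNG cells.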
row,Molecule,NFAT-GFP ASSAY: L363
1,B1,"+/- (refer to approximately 5%, 10%, 20%, 30%, 40% and 50% GFP positive cells)"
2,B2,"L363 (4+) (refer to approximately 5%, 10%, 20%, 30%, 40% and 50% GFP positive cells)"
3,B3,"L363 (2+) (refer to approximately 5%, 10%, 20%, 30%, 40% and 50% GFP positive cells)"
4,B4,"3+ (refer to approximately 5%, 10%, 20%, 30%, 40% and 50% GFP positive cells)"
5,B5,"2+ (refer to approximately 5%, 10%, 20%, 30%, 40% and 50% GFP positive cells)"
6,B6,"2+ (refer to approximately 5%, 10%, 20%, 30%, 40% and 50% GFP positive cells)"

# System: RAJI cells
# Test: JNG assay, co-culture with RAJI cells
# Assay type: cell-based
# Details: JNG cells expressing construct, co-culture with Raji
# Summary of the method: as §1
row,Molecule,NFAT-GFP ASSAY: Raji
1,B1,"+/- (refer to approximately 5%, 10%, 20%, 30%, 40% and 50% GFP positive cells)"
